# B1: 007-168 (antibody, human IgG1, V domains shown)
# VH: VQLVQSGAEAKKPGESLKISCKASGYSFTTFWIGWVRQMPGSGLEWIGIIYPGDSDTRYSPSFQGHVTISADRSTSTAYLQWSSLKASDTAMYYCARSAVFDYWGQGTLVTVSS
# VL: EIVMTQSPATLSVSPGGRATLSCRASQSVSSNLAWYQQKPGQAPRLLIYGASTRATGIPVRFSGSGSGTEFTLTISSLQSEDFAVYYCQQYNNWPTSWTFGQGTKVEIK
# B2: 007-169 (antibody, V domains shown)
# VH: EVQLVQSGAEVKKPGESLKISCKGSGYSFTSYWIGWVRQMPGKGLEWMGIIYPGDSDTRYSPSFQGQVTISADKSISTAYLQWSSLKASDTAMYYCARDYGDYYFDYWGQGTLVTVSS
# VL: QSALTQPRSVSGSPGQSVTISCTGTSSDVGGYNYVSWYQQHPGKAPKLMIYDVSKRPSGVPDRFSGSKSGNTASLTISGLQAEDEADYYCCSYAGSYTGVFGEGTKLTVL
# notes: also called 007-169-HC; 007-169-LC
# B3: 007-142 (antibody, V domains shown)
# VH: B2 VH
# VL: LTQPRSVSGSPGQSVTISCTGTSSDVGGYNYVSWYQQHPGKAPKLMIYDVSKRPSGVPDRFSGSKSGNTASLTISGLQAEDEADYYCCSYAGSYTGVFGGGTKLTVL
# notes: also called 007-142-HC; 007-142-LC
# B4: 003-109 (antibody, V domains shown)
# VH: VQLVESGGGVVQPGRSLRLSCAASGFTFSSYGMHWVRQAPGKGLEWVAVIWYDGSNKYYADSVKGRFTISRDNSKNTLYLQMNSLRAEDTAVYYCARRHYDFDAFDIWGQGTMVTVSS
# VL: QSALTQPASVSGSPGQSITISCTGTSSDVGGYNYVSWYQQHPGKAPKLMIYEVSNRPSGVSNRFSGSKSGNTASLTISGLQAEDEADYYCSSYTSSSTLYVFGTGTKVTVL
# notes: also called 003-109-HC; 003-109-LC
# B5: 007-124 (antibody, human IgG1, V domains shown)
# VH: EVQLVESGGGVGRPGGSLRLSCAASGFTFDDYGMSWVRQVPGKGLEWVSGINWSGADTGYADSVKGRFTISRDNAKNSLYLQMNSLRVEDTALYHCAREVGIAVTGYWFDPWGQGTLVTV
# VL: SYELTQPPSVSVAPGQTARISCGGNHSESVHWYQQKPGQAPVLVVYDDSDRPSGIPERFSGSKSGNTATLTISRVEGGDEAEYYCQVWDSSSDHPGVVFGGGTKLTVL
# notes: also called 007-124-HC; 007-124-LC
# B6: 008-218 (antibody, human IgG1, V domains shown)
# VH: EVQLVESGGGLVQPGRSLRLSCAASGFTFDDYAMHWVRQVPGKGLEWVSGISWSSGSIGYADSVKGRFTISRDNAKNSLYLQMNSLRAEDTALYYCAKDRASSWYAYGMDVWGQGTLVTV
# VL: NFMLTQPHSVSESPGKTVTISCTRSSGSIASNYVQWYQQRPGSSPTTVIYDDNQRPSGVPNRFSGSIDSSSNSASLIISGLKTEDEADYYCQSTRVFGGGTKLTVL
# notes: also called 008-218-HC; 008-218-LC
# Biological target: T1, NR1 construct with mutation N368Q (human, UniProt Q05586 19-938)
# T1 construct: whole, on cells; also called mutated NR1 construct; the mutant
# Assay: immunofluorescence staining of HEK293 cells transfected with NR1 N368Q
# Procedure: The cDNA of the human ionotropic glutamate N-methyl-D-aspartate 1 receptor (GRIN1) was kindly provided by Prof. Dr. Wanker (MDC, Berlin) and cloned into pBudCE4.1 (Life Technologies). NR1 DNA (1 μg) was mixed with 3 μg PEI and 100 μl 150 mM NaCl, vortexed and incubated for 10 min, and HEK293 cells were transiently transfected. Two days later, HEK293 cells on cover slips were fixed with methanol at −20° C. for 4 min. In addition, HEK293 cells transfected with a different NMDAR clone, leucine-rich glioma-inactivated 1 (LGI1), contactinassociated protein 2 (Caspr2), α-amino-3-hydroxy-5-methyl-4-isoxazolepropionic acid (AMPA) receptor, and gamma-aminobutyric acid b (GABAb) receptor were used (Autoimmune-Enzephalitis-Mosaik 1, Euroimmun, Lübeck, Germany). For staining with monoclonal antibodies and control antibodies, cells were washed in PBS, preincubated with 5% normal goat serum containing 2% bovine serum albumin and 0.1% Triton X-100, and incubated with antibodies starting at a 1:2 dilution of the cell culture supernatant overnight at 4° C. Secondary fluorescently labeled anti-human IgG antibodies were used for visualization. Sections were washed in PBS and coverslips mounted with Immu-Mount (ThermoScientific).
# Point mutation N368Q was introduced into the NR1 construct using the Stratagene QuikChange Mutagenesis kit according to manufacturer's instructions and the mutant transiently transfected into HEK293 cells as described previously (Doss et al, 2014). Staining of HEK293 cells expressing natural and mutated NR1 construct was performed as described above.
row,Binder,binding result
1,B1,no binding
2,B2,no binding
3,B3,no binding
4,B4,no binding
5,B5,no binding
6,B6,no binding
